Test results published in the RNAGym collection of RNA variant scans (doi:10.7554/elife.90254).

B1: OR4K15 (parent)
chain: GUUAACGGUCAUAGGCCAUGGAAACUAGGAGCACCAUUUCGCUGCCAGUGAAGAAAUGAACAAAGAAAAUCUGGGCCAGGCAGGCAUCAAAAGAAAUAGUCUUGCGCUCAACCAGAAAGUCUGUAAUCAUUUUAAGGGUA

Variants of: B1
Assay: self-cleavage, relative activity (ratio to wild type); higher = more cleavage; in vitro, sequencing; the parent is a self-cleaving ribozyme

Variant | self-cleavage
GUUAACGGUCAUAGGCCAUGGAAACUAGGAGCACCAUUUCGCUGCCAGUGAAGAAAUGAACAAAGAAAAUCUGGGCCAGGCAGGCAUCAAAAGAAAUAGUCUUGCGCUCAACCAGAAAGUCUGUAAUCCCUUUAAGGGUA [A129C U130C] | 0.63
GUUAACGGUCAUAGGCCAUGGAAACUAGGAGCACCAUUUCGCUGCCAGUGAAGAAAUGAACAAAGAAAAUCUGGGCCAGGCAGGCAUCAAAAGAAAUAGUCUUGCGCUCAACCAGAAAGUCUGUAAUCCUUCUAAGGGUA [A129C U132C] | 0.98
GUUAACGGUCAUAGGCCAUGGAAACUAGGAGCACCAUUUCGCUGCCAGUGAAGAAAUGAACAAAGAAAAUCUGGGCCAGGCAGGCAUCAAAAGAAAUAGUCUUGCGCUCAACCAGAAAGUCUGUAACCAUUUUUAGGGUA [U127C A134U] | 1.36
GUUAACGGUCAUAGGCCAUGGAAACUAGGAGCACCAUUUCGCUGCCAGUGAAGAAAUGAACAAAGAAAAUCUGGGCCAGGCAGGCAUCAAAAGAAAUAGUCUUGCGCUCAACCAGAAAGUCUGUAACCAAUUUAAGGGUA [U127C U130A] | 0.35
GUUAACGGUCAUAGGCCAUGGAAACUAGGAGCACCAUUUCGCUGCCAGUGAAGAAAUGAACAAAGAAAAUCUGGGCCAGGCAGGCAUCAAAAGAAAUAGUCUUGCGCUCAACCAGAAAGUCUGUAACCCUUUUAAGGGUA [U127C A129C] | 0.21
GUUAACGGUCAUAGGCCAUGGAAACUAGGAGCACCAUUUCGCUGCCAGUGAAGAAAUGAACAAAGAAAAUCUGGGCCAGGCAGGCAUCAAAAGAAAUAGUCUUGCGCUCAACCAGAAAGUCUGUAAGCGUUUUAAGGGUA [U127G A129G] | 0.97
GUUAACGGUCAUAGGCCAUGGAAACUAGGAGCACCAUUUCGCUGCCAGUGAAGAAAUGAACAAAGAAAAUCUGGGCCAGGCAGGCAUCAAAAGAAAUAGUCUUGCGCUCAACCAGAAAGUCUGUAAACAUCUUAAGGGUA [U127A U131C] | 2.45
GUUAACGGUCAUAGGCCAUGGAAACUAGGAGCACCAUUUCGCUGCCAGUGAAGAAAUGAACAAAGAAAAUCUGGGCCAGGCAGGCAUCAAAAGAAAUAGUCUUGCGCUCAACCAGAAAGUCUGUACUCAUUGUAAGGGUA [A126C U132G] | 0.89
GUUAACGGUCAUAGGCCAUGGAAACUAGGAGCACCAUUUCGCUGCCAGUGAAGAAAUGAACAAAGAAAAUCUGGGCCAGGCAGGCAUCAAAAGAAAUAGUCUUGCGCUCAACCAGAAAGUCUGUAGUCAUUUUAAGGGAA [A126G U139A] | 0
GUUAACGGUCAUAGGCCAUGGAAACUAGGAGCACCAUUUCGCUGCCAGUGAAGAAAUGAACAAAGAAAAUCUGGGCCAGGCAGGCAUCAAAAGAAAUAGUCUUGCGCUCAACCAGAAAGUCUGUAGUCAUGUUAAGGGUA [A126G U131G] | 1.23
GUUAACGGUCAUAGGCCAUGGAAACUAGGAGCACCAUUUCGCUGCCAGUGAAGAAAUGAACAAAGAAAAUCUGGGCCAGGCAGGCAUCAAAAGAAAUAGUCUUGCGCUCAACCAGAAAGUCUGUAACCAUCUUAAGGGUA [U127C U131C] | 0.51
GUUAACGGUCAUAGGCCAUGGAAACUAGGAGCACCAUUUCGCUGCCAGUGAAGAAAUGAACAAAGAAAAUCUGGGCCAGGCAGGCAUCAAAAGAAAUAGUCUUGCGCUCAACCAGAAAGUCUGUAGUCAUUUUACGGGUA [A126G A135C] | 0.84
GUUAACGGUCAUAGGCCAUGGAAACUAGGAGCACCAUUUCGCUGCCAGUGAAGAAAUGAACAAAGAAAAUCUGGGCCAGGCAGGCAUCAAAAGAAAUAGUCUUGCGCUCAACCAGAAAGUCUGUAUUCAUUCUAAGGGUA [A126U U132C] | 1.21
GUUAACGGUCAUAGGCCAUGGAAACUAGGAGCACCAUUUCGCUGCCAGUGAAGAAAUGAACAAAGAAAAUCUGGGCCAGGCAGGCAUCAAAAGAAAUAGUCUUGCGCUCAACCAGAAAGUCUGUAAUAAUUUUAAGGGCA [C128A U139C] | 1.05
GUUAACGGUCAUAGGCCAUGGAAACUAGGAGCACCAUUUCGCUGCCAGUGAAGAAAUGAACAAAGAAAAUCUGGGCCAGGCAGGCAUCAAAAGAAAUAGUCUUGCGCUCAACCAGAAAGUCUGUAAUCGUUUUAUGGGUA [A129G A135U] | 1.54
GUUAACGGUCAUAGGCCAUGGAAACUAGGAGCACCAUUUCGCUGCCAGUGAAGAAAUGAACAAAGAAAAUCUGGGCCAGGCAGGCAUCAAAAGAAAUAGUCUUGCGCUCAACCAGAAAGUCUGUAAUCGUUUUAGGGGUA [A129G A135G] | 1.08
GUUAACGGUCAUAGGCCAUGGAAACUAGGAGCACCAUUUCGCUGCCAGUGAAGAAAUGAACAAAGAAAAUCUGGGCCAGGCAGGCAUCAAAAGAAAUAGUCUUGCGCUCAACCAGAAAGUCUGUAGCCAUUUUAAGGGUA [A126G U127C] | 0.83
GUUAACGGUCAUAGGCCAUGGAAACUAGGAGCACCAUUUCGCUGCCAGUGAAGAAAUGAACAAAGAAAAUCUGGGCCAGGCAGGCAUCAAAAGAAAUAGUCUUGCGCUCAACCAGAAAGUCUGUAGACAUUUUAAGGGUA [A126G U127A] | 1.77
GUUAACGGUCAUAGGCCAUGGAAACUAGGAGCACCAUUUCGCUGCCAGUGAAGAAAUGAACAAAGAAAAUCUGGGCCAGGCAGGCAUCAAAAGAAAUAGUCUUGCGCUCAACCAGAAAGUCUGUAUUCAUCUUAAGGGUA [A126U U131C] | 1.84
GUUAACGGUCAUAGGCCAUGGAAACUAGGAGCACCAUUUCGCUGCCAGUGAAGAAAUGAACAAAGAAAAUCUGGGCCAGGCAGGCAUCAAAAGAAAUAGUCUUGCGCUCAACCAGAAAGUCUGUAACCAUUUUAGGGGUA [U127C A135G] | 0.83
GUUAACGGUCAUAGGCCAUGGAAACUAGGAGCACCAUUUCGCUGCCAGUGAAGAAAUGAACAAAGAAAAUCUGGGCCAGGCAGGCAUCAAAAGAAAUAGUCUUGCGCUCAACCAGAAAGUCUGUAAACAUUUUAAGGGUU [U127A A140U] | 1.25

Variant | self-cleavage
GUUAACGGUCAUAGGCCAUGGAAACUAGGAGCACCAUUUCGCUGCCAGUGAAGAAAUGAACAAAGAAAAUCUGGGCCAGGCAGGCAUCAAAAGAAAUAGUCUUGCGCUCAACCAGAAAGUCUGUAAUAAUUUUGAGGGUA [C128A A134G] | 1.63
GUUAACGGUCAUAGGCCAUGGAAACUAGGAGCACCAUUUCGCUGCCAGUGAAGAAAUGAACAAAGAAAAUCUGGGCCAGGCAGGCAUCAAAAGAAAUAGUCUUGCGCUCAACCAGAAAGUCUGUAAACAAUUUAAGGGUA [U127A U130A] | 1.95
GUUAACGGUCAUAGGCCAUGGAAACUAGGAGCACCAUUUCGCUGCCAGUGAAGAAAUGAACAAAGAAAAUCUGGGCCAGGCAGGCAUCAAAAGAAAUAGUCUUGCGCUCAACCAGAAAGUCUGUAUUCAUUUUAAGGGAA [A126U U139A] | 1.99
GUUAACGGUCAUAGGCCAUGGAAACUAGGAGCACCAUUUCGCUGCCAGUGAAGAAAUGAACAAAGAAAAUCUGGGCCAGGCAGGCAUCAAAAGAAAUAGUCUUGCGCUCAACCAGAAAGUCUGUAGUCAUUCUAAGGGUA [A126G U132C] | 1.07
GUUAACGGUCAUAGGCCAUGGAAACUAGGAGCACCAUUUCGCUGCCAGUGAAGAAAUGAACAAAGAAAAUCUGGGCCAGGCAGGCAUCAAAAGAAAUAGUCUUGCGCUCAACCAGAAAGUCUGUAAUCGUUUUGAGGGUA [A129G A134G] | 1.15
GUUAACGGUCAUAGGCCAUGGAAACUAGGAGCACCAUUUCGCUGCCAGUGAAGAAAUGAACAAAGAAAAUCUGGGCCAGGCAGGCAUCAAAAGAAAUAGUCUUGCGCUCAACCAGAAAGUCUGUAAUCGUUUUUAGGGUA [A129G A134U] | 1.02
GUUAACGGUCAUAGGCCAUGGAAACUAGGAGCACCAUUUCGCUGCCAGUGAAGAAAUGAACAAAGAAAAUCUGGGCCAGGCAGGCAUCAAAAGAAAUAGUCUUGCGCUCAACCAGAAAGUCUGUAAUCCUUUUAAGGGUA [A129C] | 0.97
GUUAACGGUCAUAGGCCAUGGAAACUAGGAGCACCAUUUCGCUGCCAGUGAAGAAAUGAACAAAGAAAAUCUGGGCCAGGCAGGCAUCAAAAGAAAUAGUCUUGCGCUCAACCAGAAAGUCUGUAAUCGUUUUAAGGGUA [A129G] | 0.93
GUUAACGGUCAUAGGCCAUGGAAACUAGGAGCACCAUUUCGCUGCCAGUGAAGAAAUGAACAAAGAAAAUCUGGGCCAGGCAGGCAUCAAAAGAAAUAGUCUUGCGCUCAACCAGAAAGUCUGUAUCCAUUUUAAGGGUA [A126U U127C] | 0.5
GUUAACGGUCAUAGGCCAUGGAAACUAGGAGCACCAUUUCGCUGCCAGUGAAGAAAUGAACAAAGAAAAUCUGGGCCAGGCAGGCAUCAAAAGAAAUAGUCUUGCGCUCAACCAGAAAGUCUGUAUUCAUUUUAGGGGUA [A126U A135G] | 1.24
GUUAACGGUCAUAGGCCAUGGAAACUAGGAGCACCAUUUCGCUGCCAGUGAAGAAAUGAACAAAGAAAAUCUGGGCCAGGCAGGCAUCAAAAGAAAUAGUCUUGCGCUCAACCAGAAAGUCUGUAAUCCUUUAAAGGGUA [A129C U133A] | 1.68
GUUAACGGUCAUAGGCCAUGGAAACUAGGAGCACCAUUUCGCUGCCAGUGAAGAAAUGAACAAAGAAAAUCUGGGCCAGGCAGGCAUCAAAAGAAAUAGUCUUGCGCUCAACCAGAAAGUCUGUAACCAUUAUAAGGGUA [U127C U132A] | 0.62
GUUAACGGUCAUAGGCCAUGGAAACUAGGAGCACCAUUUCGCUGCCAGUGAAGAAAUGAACAAAGAAAAUCUGGGCCAGGCAGGCAUCAAAAGAAAUAGUCUUGCGCUCAACCAGAAAGUCUGUAACCAUUUAAAGGGUA [U127C U133A] | 1.7
GUUAACGGUCAUAGGCCAUGGAAACUAGGAGCACCAUUUCGCUGCCAGUGAAGAAAUGAACAAAGAAAAUCUGGGCCAGGCAGGCAUCAAAAGAAAUAGUCUUGCGCUCAACCAGAAAGUCUGUAGUCAUUUUGAGGGUA [A126G A134G] | 1.17
GUUAACGGUCAUAGGCCAUGGAAACUAGGAGCACCAUUUCGCUGCCAGUGAAGAAAUGAACAAAGAAAAUCUGGGCCAGGCAGGCAUCAAAAGAAAUAGUCUUGCGCUCAACCAGAAAGUCUGUAACCAUUUUAAGGGCA [U127C U139C] | 0.89
GUUAACGGUCAUAGGCCAUGGAAACUAGGAGCACCAUUUCGCUGCCAGUGAAGAAAUGAACAAAGAAAAUCUGGGCCAGGCAGGCAUCAAAAGAAAUAGUCUUGCGCUCAACCAGAAAGUCUGUAGUCGUUUUAAGGGUA [A126G A129G] | 0.97
GUUAACGGUCAUAGGCCAUGGAAACUAGGAGCACCAUUUCGCUGCCAGUGAAGAAAUGAACAAAGAAAAUCUGGGCCAGGCAGGCAUCAAAAGAAAUAGUCUUGCGCUCAACCAGAAAGUCUGUAACCAUUUUAAGGGUU [U127C A140U] | 1.33
GUUAACGGUCAUAGGCCAUGGAAACUAGGAGCACCAUUUCGCUGCCAGUGAAGAAAUGAACAAAGAAAAUCUGGGCCAGGCAGGCAUCAAAAGAAAUAGUCUUGCGCUCAACCAGAAAGUCUGUAAGCAUUUUAAGGGUA [U127G] | 1.32
GUUAACGGUCAUAGGCCAUGGAAACUAGGAGCACCAUUUCGCUGCCAGUGAAGAAAUGAACAAAGAAAAUCUGGGCCAGGCAGGCAUCAAAAGAAAUAGUCUUGCGCUCAACCAGAAAGUCUGUAAACAUUUUAAGGGUA [U127A] | 1.6
GUUAACGGUCAUAGGCCAUGGAAACUAGGAGCACCAUUUCGCUGCCAGUGAAGAAAUGAACAAAGAAAAUCUGGGCCAGGCAGGCAUCAAAAGAAAUAGUCUUGCGCUCAACCAGAAAGUCUGUAACCAUUUUAAGGGUA [U127C] | 0.68
